Measured values: US10428140B2, “Anti-EphA4 antibody” (EISAI R&D MANAGEMENT CO., LTD., priority 2015, dated 2019)

T1: human EphA10 (Homo sapiens, UniProt Q5JZY3)
T1 construct: a protein of the extracellular region of each human Eph receptor fused with the SEAP protein and the His tag; made in house; host or cells: Expi293F cells (culture supernatant)
T1 sequence (Q5JZY3 34-565 limits assumed): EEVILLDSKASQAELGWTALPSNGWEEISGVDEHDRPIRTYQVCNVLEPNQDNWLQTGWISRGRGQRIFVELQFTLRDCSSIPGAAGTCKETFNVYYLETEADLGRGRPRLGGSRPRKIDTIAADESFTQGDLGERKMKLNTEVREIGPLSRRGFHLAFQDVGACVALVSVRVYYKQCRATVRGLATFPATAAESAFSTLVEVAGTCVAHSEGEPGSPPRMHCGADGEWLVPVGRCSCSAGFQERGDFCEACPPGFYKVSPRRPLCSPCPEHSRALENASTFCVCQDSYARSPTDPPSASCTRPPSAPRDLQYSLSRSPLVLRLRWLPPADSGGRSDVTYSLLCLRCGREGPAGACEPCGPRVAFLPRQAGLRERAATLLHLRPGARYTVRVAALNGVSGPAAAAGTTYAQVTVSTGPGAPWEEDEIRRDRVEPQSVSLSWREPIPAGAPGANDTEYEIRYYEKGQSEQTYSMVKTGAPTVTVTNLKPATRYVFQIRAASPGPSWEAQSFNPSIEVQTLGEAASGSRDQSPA

T2: human EphB4 (Homo sapiens, UniProt P54760)
T2 construct: a protein of the extracellular region of each human Eph receptor fused with the SEAP protein and the His tag; made in house; host or cells: Expi293F cells
T2 sequence (P54760 16-539 limits assumed): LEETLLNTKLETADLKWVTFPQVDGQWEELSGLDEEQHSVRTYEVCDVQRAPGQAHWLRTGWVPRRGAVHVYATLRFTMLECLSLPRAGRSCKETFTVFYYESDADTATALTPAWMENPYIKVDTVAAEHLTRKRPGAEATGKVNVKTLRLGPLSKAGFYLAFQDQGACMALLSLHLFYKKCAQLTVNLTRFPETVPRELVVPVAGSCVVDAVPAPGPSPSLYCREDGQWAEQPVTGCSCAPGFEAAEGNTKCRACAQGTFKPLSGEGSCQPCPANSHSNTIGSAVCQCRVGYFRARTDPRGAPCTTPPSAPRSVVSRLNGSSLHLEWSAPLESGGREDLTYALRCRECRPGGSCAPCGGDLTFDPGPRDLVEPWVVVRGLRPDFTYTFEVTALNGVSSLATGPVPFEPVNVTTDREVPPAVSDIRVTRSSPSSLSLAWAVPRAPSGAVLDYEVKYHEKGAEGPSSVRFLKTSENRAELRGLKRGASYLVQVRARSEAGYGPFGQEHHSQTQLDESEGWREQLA

T3: human EphB6 (Homo sapiens, UniProt O15197)
T3 construct: a protein of the extracellular region of each human Eph receptor fused with the SEAP protein and the His tag; made in house; host or cells: Expi293F cells
T3 sequence (O15197 32-594 limits assumed): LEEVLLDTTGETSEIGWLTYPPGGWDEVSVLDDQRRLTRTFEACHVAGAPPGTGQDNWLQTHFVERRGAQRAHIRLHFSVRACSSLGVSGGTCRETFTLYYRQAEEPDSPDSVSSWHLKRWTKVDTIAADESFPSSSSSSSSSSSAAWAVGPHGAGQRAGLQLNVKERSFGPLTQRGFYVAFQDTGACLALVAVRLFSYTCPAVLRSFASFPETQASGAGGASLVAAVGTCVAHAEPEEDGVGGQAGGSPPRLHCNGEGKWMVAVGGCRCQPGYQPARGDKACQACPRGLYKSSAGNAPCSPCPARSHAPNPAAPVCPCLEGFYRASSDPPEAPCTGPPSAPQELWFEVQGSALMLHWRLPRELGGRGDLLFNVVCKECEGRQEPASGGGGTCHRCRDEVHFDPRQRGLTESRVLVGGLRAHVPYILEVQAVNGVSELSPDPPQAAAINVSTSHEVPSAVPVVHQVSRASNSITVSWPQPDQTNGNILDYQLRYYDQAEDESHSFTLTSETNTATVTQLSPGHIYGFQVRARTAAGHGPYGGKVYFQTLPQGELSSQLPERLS


Key:
Assay in all cases: Selectivity ELISA of humanized antibodies for human Eph receptor
Format in all cases: binding
Settings in all cases: coated protein 1 nM
[1] = molecular target: T1, human EphA10
Summary of the method: (§1)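 Read-out is A450 after TMB development stopped with 1N H2SO4. Plates bore anti-His-captured human Eph extracellular region-SEAP-His proteins at 1 nM final, made in Expi293F cells. Humanized antibody binding ran 1 h at room temperature before HRP-labeled anti-IgG detection.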

[2] = molecular target: T2, human EphB4
Summary of the method: as §1

[3] = molecular target: T3, human EphB6
Summary of the method: as §1

| Molecule | hEphA10-SEAP-: absorbance at 450 nm, percentage with respect to hEphA4-SEAP-His as 100% [1] [%] | hEphB4-SEAP-: absorbance at 450 nm, percentage with respect to hEphA4-SEAP-His as 100% [2] [%] | hEphB6-SEAP-: absorbance at 450 nm, percentage with respect to hEphA4-SEAP-His as 100% [3] [%] |
| --- | --- | --- | --- |
| 69 (antibody, V domains shown, synthetic humanized antibody heavy chain variable region sequence; synthetic humanized antibody light chain variable region sequence) VH: QIQLVQSGSELKKPGASVKVSCKASGYTFTDYSMHWVRQAPGQGLKWMGWINTETGEPTYADDFKGRFVFSLDTSVSTAYLQISSLKAEDTAVYYCARIPLYYYGSRYWYFDVWGQGTTVTVSS VL: DIQMTQSPSSLSASVGDRVTITCRASENIYRNLAWYQQKPGKAPKLLVYAATNLADGVPSRFSGSGSGTDYTLTISSLQPEDFATYYCQHFWGTPWTFGQGTKVEIK | 5.4 | 5.5 | 5.6 |
| 86 (antibody, V domains shown, constant regions without entry; synthetic humanized antibody light chain variable region sequence; synthetic humanized antibody heavy chain variable region sequence) VL: DIQMTQSPSSLSASVGDRVTITCRASENIYRNLAWYQQKPGKAPKLLLYAATNLADGVPSRFSGSGSGTDYTLTISSLQSEDFATYYCQHFWGTPWTFGQGTKVEIK VH: QIQLVQSGSELKKPGASVKVSCKASGYTFTDYSMHWVRQAPGQGLKWMGWINTETGEPTYADDFKGRFVFSLDTSVSTAYLQISSLKAEDTAVYYCARIPLYYYGSRYWYFDVWGQGTTVTVSS | 5.6 | 5.8 | 5.7 |
| 84 (antibody, V domains shown, constant regions without entry; synthetic humanized antibody light chain variable region sequence; synthetic humanized antibody heavy chain variable region sequence) VL: DIQMTQSPSSLSASVGDRVTITCRASENIYRNLAWYQQKPGKAPKLLLYAATNLADGVPSRFSGSGSGTDYTLTISSLQSEDFATYYCQHFWGTPWTFGQGTKVEIK VH: QVQLVQSGSELKKPGASVKVSCKASGYTFTDYSMHWVRQAPGQGLEWMGWINTETGEPTYADDFKGRFVFSLDTSVSTAYLQISSLKAEDTAVYYCARIPLYYYGSRYWYFDVWGQGTTVTVSS | 5.1 | 5.4 | 4.9 |
| 82 (antibody, V domains shown, constant regions without entry; synthetic humanized antibody light chain variable region sequence; synthetic humanized antibody heavy chain variable region sequence) VL: DIQMTQSPSSLSASVGDRVTITCRASENIYRNLAWYQQKPGKAPKLLLYAATNLADGVPSRFSGSGSGTDYTLTISSLQSEDFATYYCQHFWGTPWTFGQGTKVEIK VH: QVQLVQSGSELKKPGASVKVSCKASGYTFTDYSMHWVRQAPGQGLKWMGWINTETGEPTYAQGFTGRFVFSLDTSVSTAYLQISSLKAEDTAVYYCARIPLYYYGSRYWYFDVWGQGTTVTVSS | 5.4 | 5.7 | 5.5 |
| 85 (antibody, V domains shown, constant regions without entry; synthetic humanized antibody light chain variable region sequence; synthetic humanized antibody heavy chain variable region sequence) VL: DIQMTQSPSSLSASVGDRVTITCRASENIYRNLAWYQQKPGKAPKLLLYAATNLADGVPSRFSGSGSGTDYTLTISSLQSEDFATYYCQHFWGTPWTFGQGTKVEIK VH: QVQLVQSGSELKKPGASVKVSCKASGYTFTDYSMHWVRQAPGQGLKWMGWINTETGEPTYADDFKGRFVFSLDTSVSTAYLQISSLKAEDTAVYYCARIPLYYYGSRYWYFDVWGQGTTVTVSS | 5.0 | 5.2 | 5.2 |
| 81 (antibody, V domains shown, constant regions without entry; synthetic humanized antibody light chain variable region sequence; synthetic humanized antibody heavy chain variable region sequence) VL: DIQMTQSPSSLSASVGDRVTITCRASENIYRNLAWYQQKPGKAPKLLLYAATNLADGVPSRFSGSGSGTDYTLTISSLQSEDFATYYCQHFWGTPWTFGQGTKVEIK VH: QVQLVQSGSELKKPGASVKVSCKASGYTFTDYSMHWVRQAPGQGLEWMGWINTETGEPTYAQGFTGRFVFSLDTSVSTAYLQISSLKAEDTAVYYCARIPLYYYGSRYWYFDVWGQGTTVTVSS | 4.8 | 5.0 | 5.0 |
| 83 (antibody, V domains shown, constant regions without entry; synthetic humanized antibody light chain variable region sequence; synthetic humanized antibody heavy chain variable region sequence) VL: DIQMTQSPSSLSASVGDRVTITCRASENIYRNLAWYQQKPGKAPKLLLYAATNLADGVPSRFSGSGSGTDYTLTISSLQSEDFATYYCQHFWGTPWTFGQGTKVEIK VH: QIQLVQSGSELKKPGASVKVSCKASGYTFTDYSMHWVRQAPGQGLKWMGWINTETGEPTYAQGFTGRFVFSLDTSVSTAYLQISSLKAEDTAVYYCARIPLYYYGSRYWYFDVWGQGTTVTVSS | 5.6 | 5.7 | 5.8 |
| 87 (antibody, V domains shown, constant regions without entry; synthetic humanized antibody light chain variable region sequence; synthetic humanized antibody heavy chain variable region sequence) VL: DIQMTQSPSSLSASVGDRVTITCRASENIYRNLAWYQQKPGKAPQLLLYAATNLADGVPSRFSGSGSGTDYTLTISSLQPEDFATYYCQHFWGTPWTFGQGTKVEIK VH: QVQLVQSGSELKKPGASVKVSCKASGYTFTDYSMHWVRQAPGQGLEWMGWINTETGEPTYAQGFTGRFVFSLDTSVSTAYLQISSLKAEDTAVYYCARIPLYYYGSRYWYFDVWGQGTTVTVSS | 5.2 | 5.5 | 5.3 |
